Earlier results, collected in PMC9523730.

Target: 14-3-3ζ (Homo sapiens) (UniProt P63104)
Test: various biophysical approaches

## 14-3-3ζ (from UniProt P63104)
  Kd: 5 nM
